For the experiment, the target named is recombinant RB47 (r-RB47), containing only the four RNA recognition motif domains, histidine tag fus (Chlamydomonas reinhardtii). Kind of experiment: cell-based or functional assay.

Several values for one entry are separate records, joined by “and”; a condition that tells them apart may be missing. Identical values can stand only once.

Take “recombinant RB60 (r-RB60), histidine tag fusion expressed in E. coli (enzyme)”: the RNA binding activity of r-RB47 (gel mobility-shift assay) after incubation with GSSG and r-RB60 is 5 fold and 6 fold.

Values taken from patent EP1772519A1.
